These results are taken from patent US5621079A, “Neuropeptide Y receptor” (Merck & Co., Inc., priority 1995, dated 1997).

The test concerns the target T1, murine NPY Yx receptor (Mus musculus, UniProt Q61212).
T1 construct: identified a 371 amino acid open reading frame; expressed in transfected cells; host or cells: COS-7 cells, transient (pcDNA3 vector pVE2863), membranes
T1 sequence (Q61212 1-371): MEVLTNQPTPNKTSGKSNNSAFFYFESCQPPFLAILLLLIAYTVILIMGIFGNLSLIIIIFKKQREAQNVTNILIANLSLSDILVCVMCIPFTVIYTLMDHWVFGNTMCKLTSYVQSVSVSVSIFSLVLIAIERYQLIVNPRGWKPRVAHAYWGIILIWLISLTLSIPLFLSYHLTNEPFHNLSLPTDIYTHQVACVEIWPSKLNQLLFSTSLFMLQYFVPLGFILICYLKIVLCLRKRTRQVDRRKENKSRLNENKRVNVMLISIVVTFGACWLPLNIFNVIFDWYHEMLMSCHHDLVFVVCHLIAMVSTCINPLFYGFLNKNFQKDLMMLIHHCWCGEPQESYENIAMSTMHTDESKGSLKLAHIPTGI
Briefly: 125I-PYY competition binding to membranes of COS-7 cells transfected with the murine NPY Yx receptor. The settings on record: COS-7 membranes (50 μg protein), 125I-PYY 90 pM, 2 hours at room temperature; read-out: IC50 (concentration of peptide causing 50% inhibition of 125I-PYY binding). Here is the method:
Using electroporation, COS-7 cells were transfected with the pcDNA3 expression vector containing the genomic DNA for the murine NPY Yx receptor (pVE2863). Two days post transfection, cells were dissociated with enzyme-free dissociation buffer, centrifuged at 1000 rpm for 10 minutes at 4° C., and resuspended in 10 mM Tris, pH 7.4 containing […] (phenylmethylsulfonyl fluoride), 10 μM phosphoramidon, and 40 μg/ml bacitracin. The cell suspension was homogenized with a glass homogenizer, and centrifuged at 2200 rpm for 10 minutes at 4° C. to remove cell debris. The plasma membrane fraction was recovered by centrifuging the supernatant at 18,000 rpm in a Sorvall SS-34 rotor for 15 minutes at 4° C. The membrane pellet was resuspended in the Tris/PMSF/phosphoramidon/bacitracin buffer by trituration 5 times using a 25 g needle and syringe. The membranes were stored frozen at -80° C. until use.
After 2 hours at room temperature, the incubation was filtered over GF/C filters, and the radioactivity bound to the filters was quantified with a Packard gamma counter.

Regarding NPY2-36 [NPY(2-36)], the IC50 turned out to be 16 nM. As to Neuropeptide Y [NPY], the IC50 stood at 6 nM. Regarding [Leu31, Pro34]NPY [[Leu^31, Pro^34]NPY], the IC50 came to 9 nM. For NPY13-36 [NPY(13-36)], the IC50 turned out to be 134 nM.
